Here are results for four molecules from EP4239334A1 (Consorcio Centro de Investigación Biomédica en Red (CIBER), dated 2023).

For experiment [1], the target named is T1, NF-κB p65 subunit (endogenous, HEK-293T cells) (UniProt Q04206 1-551).
T1 construct: Endogenous protein co-precipitated with HA-IκBα from transfected HEK-293T cells; also called p65/NF-κB; p65/RelA
Kind of experiment: PD and Co-IP.

Experiment [2] deals with T2, NF-κB p50 subunit (endogenous, HEK-293T cells) (UniProt P19838 1-433, limits assumed).
T2 construct: Endogenous protein co-precipitated with HA-IκBα from transfected HEK-293T cells; also called p50 NF-κB
T2 sequence (looked up): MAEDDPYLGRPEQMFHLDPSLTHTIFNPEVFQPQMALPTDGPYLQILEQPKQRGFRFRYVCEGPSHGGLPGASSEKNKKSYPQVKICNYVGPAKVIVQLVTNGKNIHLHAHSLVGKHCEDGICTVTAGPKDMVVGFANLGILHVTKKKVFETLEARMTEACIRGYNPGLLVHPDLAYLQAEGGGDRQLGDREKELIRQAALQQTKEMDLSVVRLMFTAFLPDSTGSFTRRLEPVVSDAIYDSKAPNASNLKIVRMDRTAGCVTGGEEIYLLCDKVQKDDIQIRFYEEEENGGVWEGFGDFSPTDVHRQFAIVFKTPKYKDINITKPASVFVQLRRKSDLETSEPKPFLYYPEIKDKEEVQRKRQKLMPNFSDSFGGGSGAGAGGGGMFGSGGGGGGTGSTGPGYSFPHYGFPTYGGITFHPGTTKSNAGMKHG
Nature of the experiment: PD and Co-IP.

In experiment [3] the target is T1, NF-κB p65 subunit (endogenous, HEK-293T …). Kind of experiment: Co-IP of single point mutants, WB.
Experiment [4] concerns the target T2, NF-κB p50 subunit (endogenous, HEK-293T …). Kind of experiment: Co-IP of single point mutants, WB.
Experiment [5] concerns the target T1, NF-κB p65 subunit (endogenous, HEK-293T …). Kind of experiment: Co-IP from transfected HEK-293T cells, WB.
Experiment [6] deals with T2, NF-κB p50 subunit (endogenous, HEK-293T …). Nature of the experiment: Co-IP from transfected HEK-293T cells, WB.

T1 sequence (Q04206 whole entry): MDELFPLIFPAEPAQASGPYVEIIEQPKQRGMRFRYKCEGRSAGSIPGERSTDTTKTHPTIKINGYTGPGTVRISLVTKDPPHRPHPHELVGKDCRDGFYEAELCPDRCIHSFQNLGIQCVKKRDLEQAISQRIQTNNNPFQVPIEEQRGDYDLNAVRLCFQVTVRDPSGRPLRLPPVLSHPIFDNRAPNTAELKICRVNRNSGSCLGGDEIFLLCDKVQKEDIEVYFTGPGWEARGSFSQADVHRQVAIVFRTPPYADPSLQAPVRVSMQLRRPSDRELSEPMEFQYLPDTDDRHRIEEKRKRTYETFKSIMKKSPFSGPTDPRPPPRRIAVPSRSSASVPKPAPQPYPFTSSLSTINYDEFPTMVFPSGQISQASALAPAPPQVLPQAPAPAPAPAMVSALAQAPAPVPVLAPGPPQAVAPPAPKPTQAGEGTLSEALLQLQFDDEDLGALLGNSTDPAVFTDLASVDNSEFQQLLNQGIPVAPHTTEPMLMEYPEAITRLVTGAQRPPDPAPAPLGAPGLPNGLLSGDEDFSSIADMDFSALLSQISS

B1: IκBα HEE84-86AAA / SOF^NF-κB (SEQ ID NO: 1) (other)
chain: MFQAAERPQEWAMEGPRDGLKKERLLDDRHDSGLDSMKDEEYEQMVKELQEIRLEPQEVPRGSEPWKQQLTEDGDSFLHLAIIAAAKALTMEVIRQVKGDLAFLNFQNNLQQTPLHLAVITNQPEIAEALLGAGCDPELRDFRGNTPLHLACEQGCLASVGVLTQSCTTPHLHSILKATNYNGHTCLHLASIHGYLGIVELLVSLGADVNAQEPCNGRTALHLAVDLQNPDLVSLLLKCGADVNRVTYQGYSPYQLTWGRPSTRIQQQLGQLTLENLQMLPESEDEESYDTESEFTEFTEDELPYDDCVFGGQRLTL
notes: Compose mutant of IκBα, expressed in HEK-293T cells; also called IκBα SOF^NF-κB; H84, E85, E86 to A; not shown: HA tag
For B1, the binding result in experiment [1] and in experiment [2] was “binds” in each case.

B2: IκBα D75A / SOF^PRC2 (SEQ ID NO: 2) (other)
chain: MFQAAERPQEWAMEGPRDGLKKERLLDDRHDSGLDSMKDEEYEQMVKELQEIRLEPQEVPRGSEPWKQQLTEDGASFLHLAIIHEEKALTMEVIRQVKGDLAFLNFQNNLQQTPLHLAVITNQPEIAEALLGAGCDPELRDFRGNTPLHLACEQGCLASVGVLTQSCTTPHLHSILKATNYNGHTCLHLASIHGYLGIVELLVSLGADVNAQEPCNGRTALHLAVDLQNPDLVSLLLKCGADVNRVTYQGYSPYQLTWGRPSTRIQQQLGQLTLENLQMLPESEDEESYDTESEFTEFTEDELPYDDCVFGGQRLTL
notes: Single point mutant of IκBα; also called IκBα SOF^PRC2; IkBa D75A; not shown: HA tag
In the case of B2, the binding result in experiment [3] and in experiment [4] was “no binding” throughout.

B3: IκBα N108A / SOF^PRC2 (SEQ ID NO: 3) (other)
chain: MFQAAERPQEWAMEGPRDGLKKERLLDDRHDSGLDSMKDEEYEQMVKELQEIRLEPQEVPRGSEPWKQQLTEDGDSFLHLAIIHEEKALTMEVIRQVKGDLAFLNFQANLQQTPLHLAVITNQPEIAEALLGAGCDPELRDFRGNTPLHLACEQGCLASVGVLTQSCTTPHLHSILKATNYNGHTCLHLASIHGYLGIVELLVSLGADVNAQEPCNGRTALHLAVDLQNPDLVSLLLKCGADVNRVTYQGYSPYQLTWGRPSTRIQQQLGQLTLENLQMLPESEDEESYDTESEFTEFTEDELPYDDCVFGGQRLTL
notes: Single point mutant of IκBα; also called IκBα SOF^PRC2 mutant N108A; IkBa N108A; not shown: HA tag
Turning to B3, the binding result in experiment [3] and in experiment [4] was “no binding” in each case.

B4: IκBα compose mutant H84, E85, E86, N108, Q112 to A (other)
chain: MFQAAERPQEWAMEGPRDGLKKERLLDDRHDSGLDSMKDEEYEQMVKELQEIRLEPQEVPRGSEPWKQQLTEDGDSFLHLAIIAAAKALTMEVIRQVKGDLAFLNFQANLQATPLHLAVITNQPEIAEALLGAGCDPELRDFRGNTPLHLACEQGCLASVGVLTQSCTTPHLHSILKATNYNGHTCLHLASIHGYLGIVELLVSLGADVNAQEPCNGRTALHLAVDLQNPDLVSLLLKCGADVNRVTYQGYSPYQLTWGRPSTRIQQQLGQLTLENLQMLPESEDEESYDTESEFTEFTEDELPYDDCVFGGQRLTL
notes: not shown: HA tag
As to B4, the binding result in experiment [5] and in experiment [6] was “no binding” each time.
